B1: EGFP-RASSF1 (wild type) [not stated] / mCherry-SARAH_(MST1) [not stated] (parent complex)
chain 1: MSGEPELIELRELAPAGRAGKGRTRLERANALRIARGTACNPTRQLVPGRGHRFQPAGPATHTWCDLCGDFIWGVVRKGLQCAHCKFTCHYRCRALVCLDCCGPRDLGWEPAVERDTNVDEPVEWETPDLSQAEIEQKIKEYNAQINSNLFMSLNKDGSYTGFIKVQLKLVRPVSVPSSKKPPSLQDARRGPGRGTSVRRRTSFYLPKDAVKHLHVLSRTRAREVIEALLRKFLVVDDPRKFALFERAERHGQVYLRKLLDDEQPLRLRLLAGPSDKALSFVLKENDSGEVNWDAFSMPELHNFLRILQREEEEHLRQILQKYSYCRQKIQEALHACPLG
chain 2: DYEFLKSWTVEDLQKRLLALDPMMEQEIEEIRQKYQSKRQPILDAIEAKKRRQQNF
B2: EGFP-RASSF5C (wild type) [not stated] / myc-MST1 K59R [not stated] (parent complex)
chain 1: MTVDSSMSSGYCSLDEELEDCFFTAKTTFFRNAQSKHLSKNVCKPVEETQRPPTLQEIKQKIDSYNTREKNCLGMKLSEDGTYTGFIKVHLKLRRPVTVPAGIRPQSIYDAIKEVNLAATTDKRTSFYLPLDAIKQLHISSTTTVSEVIQGLLKKFMVVDNPQKFALFKRIHKDGQVLFQKLSIADRPLYLRLLAGPDTEVLSFVLKENETGEVEWDAFSIPELQNFLTILEKEEQDKIQQVQKKYDKFRQKLEEALRESQGKPG
chain 2: METVQLRNPPRRQLKKLDEDSLTKQPEEVFDVLEKLGEGSYGSVYKAIHKETGQIVAIRQVPVESDLQEIIKEISIMQQCDSPHVVKYYGSYFKNTDLWIVMEYCGAGSVSDIIRLRNKTLTEDEIATILQSTLKGLEYLHFMRKIHRDIKAGNILLNTEGHAKLADFGVAGQLTDTMAKRNTVIGTPFWMAPEVIQEIGYNCVADIWSLGITAIEMAEGKPPYADIHPMRAIFMIPTNPPPTFRKPELWSDNFTDFVKQCLVKSPEQRATATQLLQHPFVRSAKGVSILRDLINEAMDVKLKRQESQQREVDQDDEENSEEDEMDSGTMVRAVGDEMGTVRVASTMTDGANTMIEHDDTLPSQLGTMVINAEDEEEEGTMKRRDETMQPAKPSFLEYFEQKEKENQINSFGKSVPGPLKNSSDWKIPQDGDYEFLKSWTVEDLQKRLLALDPMMEQEIEEIRQKYQSKRQPILDAIEAKKRRQQNF
B3: EGFP-RASSF5C (wild type) [not stated] / mCherry-SARAH_(MST1) [not stated] (parent complex)
chain 1: B2 chain 1
chain 2: B1 chain 2
B4: EGFP-RASSF1 (wild type) [not stated] / myc-MST1 K59R [not stated] (parent complex)
chain 1: B1 chain 1
chain 2: B2 chain 2

Variants of: B1
Assay: FRET-FLIM in cells (EGFP donor lifetime, monoexponential fit, wide-field imaging); co-expressed with mCherry-SARAH(MST1); median of segmented cells; parent: 2.25e+03; read off a plot

| response [ps] | Variant |
| --- | --- |
| ~2500 | chain 1 MSGEPELIELRELAPAGRAGKGRTRLERANALRIARGTACNPTRQLVPGRGHRFQPAGPATHTWCDLCGDFIWGVVRKGLQCAHCKFTCHYRCRALVCLDCCGPRDLGWEPAVERDTNVDEPVEWETPDLSQAEIEQKIKEYNAQINSNLFMSLNKDGSYTGFIKVQLKLVRPVSVPSSKKPPSLQDARRGPGRGTSVRRRTSFYLPKDAVKHLHVLSRTRAREVIEALLRKFLVVDDPRKFALFERAERHGQVYLRKLLDDEQPLRLRLLAGPSDKALSFVLKENDSGEVNWDAFSMPELHNFLRIPQREEEEHLRQILQKYSYCRQKIQEALHACPLG [chain 1 L308P] |
| ~2490 | chain 1 MSGEPELIELRELAPAGRAGKGRTRLERANALRIARGTACNPTRQLVPGRGHRFQPAGPATHTWCDLCGDFIWGVVRKGLQCAHCKFTCHYRCRALVCLDCCGPRDLGWEPAVERDTNVDEPVEWETPDLSQAEIEQKIKEYNAQINSNLFMSLNKDGSYTGFIKVQLKLVRPVSVPSSKKPPSLQDARRGPGRGTSVRRRTSFYLPKDAVKHLHVLSRTRAREVIEALLRKFLVVDDPRKFALFERAERHGQVYLRKLLDDEQPLRLRLLAGPSDKALSFVLKENDSGEVNWDAFSMPELHNFPRILQREEEEHLRQILQKYSYCRQKIQEALHACPLG [chain 1 L305P] |
| ~2510 | chain 1 MSGEPELIELRELAPAGRAGKGRTRLERANALRIARGTACNPTRQLVPGRGHRFQPAGPATHTWCDLCGDFIWGVVRKGLQCAHCKFTCHYRCRALVCLDCCGPRDLGWEPAVERDTNVDEPVEWETPDLSQAEIEQKIKEYNAQINSNLFMSLNKDGSYTGFIKVQLKLVRPVSVPSSKKPPSLQDARRGPGRGTSVRRRTSFYLPKDAVKHLHVLSRTRAREVIEALLRKFLVVDDPRKFALFERAERHGQVYLRKLLDDEQPLRLRLLAGPSDKALSFVLKENDSGEVNWDAFSMPEPHNFLRILQREEEEHLRQILQKYSYCRQKIQEALHACPLG [chain 1 L301P] |

Variants of: B2
Assay: co-immunoprecipitation (IP anti-myc, IB anti-GFP), band quantification; n = 3; parent: 1.02; read off a plot

| ratio to parent | Variant |
| --- | --- |
| ~0.85 | chain 1 MTVDSSMSSGYCSLDEELEDCFFTAKTTFFRNAQSKHLSKNVCKPVEETQRPPTLQEIKQKIDSYNTREKNCLGMKLSEDGTYTGFIKVHLKLRRPVTVPAGIRPQSIYDAIKEVNLAATTDKRTSFYLPLDAIKQLHISSTTTVSEVIQGLLKKFMVVDNPQKFALFKRIHKDGQVLFQKLSIADRPLYLRLLAGPDTEVLSFVLKENETGEVEWDAFSIPELQNFLTIPEKEEQDKIQQVQKKYDKFRQKLEEALRESQGKPG [chain 1 L231P] |
| ~0.9 | chain 1 MTVDSSMSSGYCSLDEELEDCFFTAKTTFFRNAQSKHLSKNVCKPVEETQRPPTLQEIKQKIDSYNTREKNCLGMKLSEDGTYTGFIKVHLKLRRPVTVPAGIRPQSIYDAIKEVNLAATTDKRTSFYLPLDAIKQLHISSTTTVSEVIQGLLKKFMVVDNPQKFALFKRIHKDGQVLFQKLSIADRPLYLRLLAGPDTEVLSFVLKENETGEVEWDAFSIPELQNFPTILEKEEQDKIQQVQKKYDKFRQKLEEALRESQGKPG [chain 1 L228P] |
| ~0.98 | chain 1 MTVDSSMSSGYCSLDEELEDCFFTAKTTFFRNAQSKHLSKNVCKPVEETQRPPTLQEIKQKIDSYNTREKNCLGMKLSEDGTYTGFIKVHLKLRRPVTVPAGIRPQSIYDAIKEVNLAATTDKRTSFYLPLDAIKQLHISSTTTVSEVIQGLLKKFMVVDNPQKFALFKRIHKDGQVLFQKLSIADRPLYLRLLAGPDTEVLSFVLKENETGEVEWDAFSIPEPQNFLTILEKEEQDKIQQVQKKYDKFRQKLEEALRESQGKPG [chain 1 L224P] |

Variants of: B3
Assay: FRET-FLIM in cells (EGFP donor lifetime, monoexponential fit, wide-field imaging); co-expressed with mCherry-SARAH(MST1); median of segmented cells; parent: 2.27e+03; read off a plot

| response [ps] | Variant |
| --- | --- |
| ~2490 | chain 1 MTVDSSMSSGYCSLDEELEDCFFTAKTTFFRNAQSKHLSKNVCKPVEETQRPPTLQEIKQKIDSYNTREKNCLGMKLSEDGTYTGFIKVHLKLRRPVTVPAGIRPQSIYDAIKEVNLAATTDKRTSFYLPLDAIKQLHISSTTTVSEVIQGLLKKFMVVDNPQKFALFKRIHKDGQVLFQKLSIADRPLYLRLLAGPDTEVLSFVLKENETGEVEWDAFSIPELQNFPTILEKEEQDKIQQVQKKYDKFRQKLEEALRESQGKPG [chain 1 L228P] |
| ~2380 | chain 1 MTVDSSMSSGYCSLDEELEDCFFTAKTTFFRNAQSKHLSKNVCKPVEETQRPPTLQEIKQKIDSYNTREKNCLGMKLSEDGTYTGFIKVHLKLRRPVTVPAGIRPQSIYDAIKEVNLAATTDKRTSFYLPLDAIKQLHISSTTTVSEVIQGLLKKFMVVDNPQKFALFKRIHKDGQVLFQKLSIADRPLYLRLLAGPDTEVLSFVLKENETGEVEWDAFSIPEPQNFLTILEKEEQDKIQQVQKKYDKFRQKLEEALRESQGKPG [chain 1 L224P] |
| ~2430 | chain 1 MTVDSSMSSGYCSLDEELEDCFFTAKTTFFRNAQSKHLSKNVCKPVEETQRPPTLQEIKQKIDSYNTREKNCLGMKLSEDGTYTGFIKVHLKLRRPVTVPAGIRPQSIYDAIKEVNLAATTDKRTSFYLPLDAIKQLHISSTTTVSEVIQGLLKKFMVVDNPQKFALFKRIHKDGQVLFQKLSIADRPLYLRLLAGPDTEVLSFVLKENETGEVEWDAFSIPELQNFLTIPEKEEQDKIQQVQKKYDKFRQKLEEALRESQGKPG [chain 1 L231P] |

Variants of: B4
Assay: co-immunoprecipitation (IP anti-myc, IB anti-GFP), band quantification; n = 3; parent: 1.05; read off a plot

| ratio to parent | Variant |
| --- | --- |
| ~0.07 | chain 1 MSGEPELIELRELAPAGRAGKGRTRLERANALRIARGTACNPTRQLVPGRGHRFQPAGPATHTWCDLCGDFIWGVVRKGLQCAHCKFTCHYRCRALVCLDCCGPRDLGWEPAVERDTNVDEPVEWETPDLSQAEIEQKIKEYNAQINSNLFMSLNKDGSYTGFIKVQLKLVRPVSVPSSKKPPSLQDARRGPGRGTSVRRRTSFYLPKDAVKHLHVLSRTRAREVIEALLRKFLVVDDPRKFALFERAERHGQVYLRKLLDDEQPLRLRLLAGPSDKALSFVLKENDSGEVNWDAFSMPELHNFPRILQREEEEHLRQILQKYSYCRQKIQEALHACPLG [chain 1 L305P] |
| ~0.13 | chain 1 MSGEPELIELRELAPAGRAGKGRTRLERANALRIARGTACNPTRQLVPGRGHRFQPAGPATHTWCDLCGDFIWGVVRKGLQCAHCKFTCHYRCRALVCLDCCGPRDLGWEPAVERDTNVDEPVEWETPDLSQAEIEQKIKEYNAQINSNLFMSLNKDGSYTGFIKVQLKLVRPVSVPSSKKPPSLQDARRGPGRGTSVRRRTSFYLPKDAVKHLHVLSRTRAREVIEALLRKFLVVDDPRKFALFERAERHGQVYLRKLLDDEQPLRLRLLAGPSDKALSFVLKENDSGEVNWDAFSMPELHNFLRIPQREEEEHLRQILQKYSYCRQKIQEALHACPLG [chain 1 L308P] |
| ~0.32 | chain 1 MSGEPELIELRELAPAGRAGKGRTRLERANALRIARGTACNPTRQLVPGRGHRFQPAGPATHTWCDLCGDFIWGVVRKGLQCAHCKFTCHYRCRALVCLDCCGPRDLGWEPAVERDTNVDEPVEWETPDLSQAEIEQKIKEYNAQINSNLFMSLNKDGSYTGFIKVQLKLVRPVSVPSSKKPPSLQDARRGPGRGTSVRRRTSFYLPKDAVKHLHVLSRTRAREVIEALLRKFLVVDDPRKFALFERAERHGQVYLRKLLDDEQPLRLRLLAGPSDKALSFVLKENDSGEVNWDAFSMPEPHNFLRILQREEEEHLRQILQKYSYCRQKIQEALHACPLG [chain 1 L301P] |
